Experimental data: patent US20160158293A1, “Treatment of Ocular Conditions Using Progenitor Cells” (JANSSEN BIOTECH, INC., priority 2014, published 2016)

Tests used:
[1] = test system: retinal ganglion cells (RGCs); assay: Synapse assay: co-localized Bassoon/Homer synaptic puncta by immunocytochemistry; type: cell-based, Sprague-Dawley rat; conditions: 32 μM GBP added together with UCM
Description: (§1) Retinal Ganglion Cells: Retinal ganglion cells (RGCs) were purified by sequential immuno-panning from P7 (postnatal day 7) Sprague-Dawley rat retinas (Charles River, Wilmington, Mass.) of either sex as previously described (Winzeler A, Wang J T., Cold Spring Harbor Protocols, 2013; 643-652). Briefly, retinas were dissected and dissociated with papain (6 U/mL, Worthington, Burlingame, Calif.). Dissociated cells were panned first with Bandeiraea Simplicifolia Lectin I (BSL, Vector laboratories, Burlingame, Calif.) coated petri dishes to remove immune cells, cell debris and fibroblasts. The unbound cells were transferred to a petri dish coated with anti-Thy1 (clone T11D7) antibody for specific isolation of RGCs. The purified RGCs were gently trypsinized and re-plated onto poly-D-Lysine (PDL) and laminin-coated glass coverslips in 24-well plates (35,000 cells/coverslip). […]
Synapse formation was assessed by immunocytological analyses of the co-localization of pre-(Bassoon) and post-synaptic (Homer) markers, and electrophysiology. […] Morphologically healthy single cells that were at least two cell diameters from their nearest neighbor were identified randomly by DAPI fluorescence. […]

[2] = test system: retinal ganglion cells (RGCs); assay: Neurite outgrowth assay under growth-inhibiting conditions (CSPG, Nogo-A, MBP); type: cell-based, Sprague-Dawley rat
Description: as §1, with “RGCs.” for “RGCs. The purified RGCs were gently trypsinized and re-plated onto poly-D-Lysine (PDL) and laminin-coated glass coverslips in 24-well plates (35,000 cells/coverslip).”
To test neurite outgrowth under pathologic (i.e. growth-inhibiting) culture conditions, the RGCs (1,500 cells/coverslip) were seeded onto coverslips that were coated with various concentrations of chondroitin sulfate proteoglycan (CSPG, EMD Millipore, Billerica, Mass.), Nogo-A (R&D Systems, Minneapolis, Minn.) or in the presence of soluble myelin basic protein (MBP, 10 ug/mL, Sigma-Aldrich, St. Louis, Mo.). […] At least 30 cells per condition were imaged and analyzed per experiment and the results presented are the average of 2-3 independent experiments. Neuronal morphology was analyzed using neurite outgrowth application module in Metamorph software (Molecular Devices). […]

Molecule	UCM-induced synapse formation in the presence of gabapentin [1]	neurite growth inhibited ([2]; at 2 μg/cm^2 coating)	coating concentration from which neurite outgrowth is hindered/blocked ([2]; coated coverslips) [μg/cm^2]
NCC1(CC(=O)O)CCCCC1 [GBP, Gabapentin]	blocked the synaptogenic factors		
Nogo-A: myelin protein Nogo-A (R&D Systems), growth-inhibiting coating (protein, UniProt Q9NQC3 1-1192, looked up) Reticulon-4: MEDLDQSPLVSSSDSPPRPQPAFKYQFVREPEDEEEEEEEEEEDEDEDLEELEVLERKPAAGLSAAPVPTAPAAGAPLMDFGNDFVPPAPRGPLPAAPPVAPERQPSWDPSPVSSTVPAPSPLSAAAVSPSKLPEDDEPPARPPPPPPASVSPQAEPVWTPPAPAPAAPPSTPAAPKRRGSSGSVDETLFALPAASEPVIRSSAENMDLKEQPGNTISAGQEDFPSVLLETAASLPSLSPLSAASFKEHEYLGNLSTVLPTEGTLQENVSEASKEVSEKAKTLLIDRDLTEFSELEYSEMGSSFSVSPKAESAVIVANPREEIIVKNKDEEEKLVSNNILHNQQELPTALTKLVKEDEVVSSEKAKDSFNEKRVAVEAPMREEYADFKPFERVWEVKDSKEDSDMLAAGGKIESNLESKVDKKCFADSLEQTNHEKDSESSNDDTSFPSTPEGIKDRSGAYITCAPFNPAATESIATNIFPLLGDPTSENKTDEKKIEEKKAQIVTEKNTSTKTSNPFLVAAQDSETDYVTTDNLTKVTEEVVANMPEGLTPDLVQEACESELNEVTGTKIAYETKMDLVQTSEVMQESLYPAAQLCPSFEESEATPSPVLPDIVMEAPLNSAVPSAGASVIQPSSSPLEASSVNYESIKHEPENPPPYEEAMSVSLKKVSGIKEEIKEPENINAALQETEAPYISIACDLIKETKLSAEPAPDFSDYSEMAKVEQPVPDHSELVEDSSPDSEPVDLFSDDSIPDVPQKQDETVMLVKESLTETSFESMIEYENKEKLSALPPEGGKPYLESFKLSLDNTKDTLLPDEVSTLSKKEKIPLQMEELSTAVYSNDDLFISKEAQIRETETFSDSSPIEIIDEFPTLISSKTDSFSKLAREYTDLEVSHKSEIANAPDGAGSLPCTELPHDLSLKNIQPKVEEKISFSDDFSKNGSATSKVLLLPPDVSALATQAEIESIVKPKVLVKEAEKKLPSDTEKEDRSPSAIFSAELSKTSVVDLLYWRDIKKTGVVFGASLFLLLSLTVFSIVSVTAYIALALLSVTISFRIYKGVIQAIQKSDEGHPFRAYLESEVAISEELVQKYSNSALGHVNCTIKELRRLFLVDDLVDSLKFAVLMWVFTYVGALFNGLTLLILALISLFSVPVIYERHQAQIDHYLGLANKNVKDAMAKIQAKIPGLKRKAE		more than 50%	1
